The source of these data is PMC6284238.

Substrate in the series: NC(=O)c1ccc[n+]([C@@H]2O[C@H](COP(=O)([O-])OP(=O)(O)OC[C@H]3O[C@@H](n4cnc5c(N)ncnc54)[C@H](O)[C@@H]3O)[C@@H](O)[C@H]2O)c1
The series can be described thus: Michaelis-Menten kinetics of NAD+ cleavage by purified SARM1-TIR, HPLC. The note with it: E642 is a putative key catalytic residue within the active site. The series is classed as biochemical, Homo sapiens.

B1: SARM1-TIR (Homo sapiens) (protein)
chain: DTPDVFISYRRNSGSQLASLLKVHLQLHGFSVFIDVEKLEAGKFEDKLIQSVMGARNFVLVLSPGALDKCMQDHDCKDWVHKEIVTALSCGKNIVPIIDGFEWPEPQVLPEDMQAVLTFNGIKWSHEYQEATIEKIIRFLQGRS
As a reminder, the Km is the concentration of substrate that gives half-maximal velocity. As for B1, the Km was found to be 24 µM.
